Experimental findings from patent US20030228627, “Assay for p53 function in cells” (published 2003) are described below.

Series [1] deals with T1, p53 (full-length, Flag-tagged) (Homo sapiens, UniProt P04637 P04637:1-393). Briefly: footprint; DNase I footprinting on p21 promoter as chromatin or naked DNA; described as p53 3' binding site, outcome not shown in the text. The following applies: tags: Flag, expressed in Sf9 cells.
For series [2], the target named is T1, p53 (full-length, Flag-tagged). Briefly: EMSA; p53 with or without acetylation by p300; site described as p53 5' binding site, gel outcome not shown in the text. The following applies: tags: Flag, expressed in Sf9 cells; label: 32P end label.

B1: p21 promoter p53 3' site (dsDNA)
DNA 1: AGACTGGGCATGTCTGGGCA
DNA 2: TGCCCAGACATGCCCAGTCT
B1: in series [1], the binding result was “binds”.

B2: p21 promoter p53 5' site 25 bp oligonucleotide (dsDNA)
DNA 1: CAGGAACATGTCCCAACATGTTGAA
DNA 2: TTCAACATGTTGGGACATGTTCCTG
B2: in series [2], the binding result is “binds”.
